Experimental findings from patent US20230105457A1, “Immunogenic Compounds For Treatment Of Adrenal Cancer” (ENTEROME S.A., priority 2019, published 2023) are described below.

Ends that are not written are not given here.

Data set [1] concerns the target HLA-A*0201 molecule expressed on human tumor cell line T2 (human). In words: T2 cell HLA-A2 stabilisation, FACS; 20% of signal of HIV pol 589-597 at 100 µM.
The target is the same in data set [2]. The experiment in a line: T2 cell HLA-A2 stabilisation, FACS; peptide at 1 µM.
Data set [3] shares this target. In words: T2 cell HLA-A2 stabilisation, FACS; peptide at 0.1 µM.
For data set [4] the target is unchanged. In words: T2 cell HLA-A2 stabilisation, FACS; peptide at 10 µM.
The subject of data set [5] is T2 cell lines loaded with bacterial peptide. The experiment in a line: Cytotoxic assay of expanded peptide-specific CD8+ T cells (Example 14). Type of data set: cell-based, human. Particulars: T cell clones expanded in vitro; flow cytometry readout. The source says:
CD8+ T cells expanded per above were used to perform cytotoxic assays in presence of different ratios of target and effector cells to assess their cytotoxic capacity, using flow cytometry readout. Target cells were T2 cell lines loaded with bacterial peptide. Negative control was T2 cells unloaded and T2 cells loaded with irrelevant peptide.

Data set [6] has as its target T1, HLA-A*0201 molecule expressed on human tumor cell line T2 (human).
T1 construct: surface HLA-A2 read with anti-HLA-A2 antibody BB7.2-PE by FACS; also called HLA-A2
The experiment in a line: T2 cell HLA-A2 stabilisation, FACS.

With reference peptide HIV pol 589-597, the Concentration of peptide that induces 20% of HLA-A2 expression in data set [1] worked out at 0.85 µM. The figures for the mean relative fluorescence intensity (relative (HIV peptide = 100)) in data set [2], in data set [3] and in data set [4] were 22.1, 2.4 and 84.7, respectively.
Turning to FLPFGFILPV [IL13RA2-L], the “Cytotoxic capacity of peptide-specific human T cell clones (in words)” value in data set [5] is given as “have the capacity to kill T2 cells loaded with the bacteria peptide”.

B1: IL13RA2-B2 (SEQ ID NO: 192, Example 3) (peptide)
peptide: YLYTFLIST
On to B1, for which the binding result in data set [6] is “binds”.
